{"source": "patent US20070134660", "proteins": {"B1": {"name": "hu_KIF1B (1-350H) motor domain (SEQ ID NO:21) (protein)", "chain": "MSGASVKVAVRVRPFNSRETSKESKCIIQMQGNSTSIINPKNPKEAPKSFSFDYSYWSHTSPEDPCFASQNRVYNDIGKEMLLHAFEGYNVCIFAYGQTGAGKSYTMMGKQEESQAGIIPQLCEELFEKINDNCNEEMSYSVEVSYMEIYCERVRDLLNPKNKGNLRVREHPLLGPYVEDLSKLAVTSYTDIADLMDAGNKARTVAATNMNETSSRSHAVFTIVFTQKKHDNETNLSTEKVSKISLVDLAGSERADSTGAKGTRLKEGANINKSLTTLGKVISALAEVDNCTSKSKKKKKTDFIPYRDSVLTWLLRENLGGNSRTAMVAALSPADINYDETLSTLRYADRVDKLAAALEHHHHHH"}, "B2": {"name": "KIF14 motor domain V354-K720 (SEQ ID NO:6) (protein)", "chain": "MVENSQVTVAVRVRPFTKREKIEKASQVVFMSGKEITVEHPDTKQVYNFIYDVSFWSFDECHPHYASQTTVYEKLAAPLLERAFEGFNTCLFAYGQTGSGKSYTMMGFSEEPGIIPRFCEDLFSQVARKQTQEVSYHIEMSFFEVYNEKIHDLLVCKDENGQRKQPLRVREHPVYGPYVEALSMNIVSSYADIQSWLELGNKQRATAATGMNDKSSRSHSVFTLVMTQTKTEFVEGEEHDHRITSRINLIDLAGSERCSTAHTNGDRLKEGVSINKSLLTLGKVISALSEQANQRSVFIPYRESVLTWLLKESLGGNSKTAMIATISPAASNIEETLSTLRYANQARLIVNIAKVNEDMNAKLIRELKLEHHHHHHHHHHHH"}, "B3": {"name": "KIF14 motor domain V342-K720 (SEQ ID NO:4) (protein)", "chain": "MVQNTSAGKDPLKVENSQVTVAVRVRPFTKREKIEKASQVVFMSGKEITVEHPDTKQVYNFIYDVSFWSFDECHPHYASQTTVYEKLAAPLLERAFEGFNTCLFAYGQTGSGKSYTMMGFSEEPGIIPRFCEDLFSQVARKQTQEVSYHIEMSFFEVYNEKIHDLLVCKDENGQRKQPLRVREHPVYGPYVEALSMNIVSSYADIQSWLELGNKQRATAATGMNDKSSRSHSVFTLVMTQTKTEFVEGEEHDHRITSRINLIDLAGSERCSTAHTNGDRLKEGVSINKSLLTLGKVISALSEQANQRSVFIPYRESVLTWLLKESLGGNSKTAMIATISPAASNIEETLSTLRYANQARLIVNIAKVNEDMNAKLIRELKLEHHHHHHHHHHHH"}, "B4": {"name": "KIF14 motor domain V354-D710 (SEQ ID NO:7) (protein)", "chain": "MVENSQVTVAVRVRPFTKREKIEKASQVVFMSGKEITVEHPDTKQVYNFIYDVSFWSFDECHPHYASQTTVYEKLAAPLLERAFEGFNTCLFAYGQTGSGKSYTMMGFSEEPGIIPRFCEDLFSQVARKQTQEVSYHIEMSFFEVYNEKIHDLLVCKDENGQRKQPLRVREHPVYGPYVEALSMNIVSSYADIQSWLELGNKQRATAATGMNDKSSRSHSVFTLVMTQTKTEFVEGEEHDHRITSRINLIDLAGSERCSTAHTNGDRLKEGVSINKSLLTLGKVISALSEQANQRSVFIPYRESVLTWLLKESLGGNSKTAMIATISPAASNIEETLSTLRYANQARLIVNIAKVNEDLEHHHHHHHHHHHH"}, "B5": {"name": "KIF14 motor domain V342-D710 (SEQ ID NO:5) (protein)", "chain": "MVQNTSAGKDPLKVENSQVTVAVRVRPFTKREKIEKASQVVFMSGKEITVEHPDTKQVYNFIYDVSFWSFDECHPHYASQTTVYEKLAAPLLERAFEGFNTCLFAYGQTGSGKSYTMMGFSEEPGIIPRFCEDLFSQVARKQTQEVSYHIEMSFFEVYNEKIHDLLVCKDENGQRKQPLRVREHPVYGPYVEALSMNIVSSYADIQSWLELGNKQRATAATGMNDKSSRSHSVFTLVMTQTKTEFVEGEEHDHRITSRINLIDLAGSERCSTAHTNGDRLKEGVSINKSLLTLGKVISALSEQANQRSVFIPYRESVLTWLLKESLGGNSKTAMIATISPAASNIEETLSTLRYANQARLIVNIAKVNEDLEHHHHHHHHHHHH"}, "B6": {"name": "hu_nKHC (1-340H) motor domain (SEQ ID NO:18) (protein)", "chain": "MAETNNECSIKVLCRFRPLNQAEILRGDKFIPIFQGDDSVVIGGKPYVFDRVFPPNTTQEQVYHACAMQIVKDVLAGYNGTIFAYGQTSSGKTHTMEGKLHDPQLMGIIPRIARDIFNHIYSMDENLEFHIKVSYFEIYLDKIRDLLDVTKTNLSVHEDKNRVPFVKGCTERFVSSPEEILDVIDEGKSNRHVAVTNMNEHSSRSHSIFLINIKQENMETEQKLSGKLYLVDLAGSEKVSKTGAEGAVLDEAKNINKSLSALGNVISALAEGTKSYVPYRDSKMTRILQDSLGGNCRTTMFICCSPSSYNDAETKSTLMFGQRAKTIKNTASVNLELTAEVDKLAAALEHHHHHH"}, "B7": {"name": "hu_uKHC (1-337H) motor domain (SEQ ID NO:17) (protein)", "chain": "MADLAECNIKVMCRFRPLNESEVNRGDKYIAKFQGEDTVVIASKPYAFDRVFQSSTSQEQVYNDCAKKIVKDVLEGYNGTIFAYGQTSSGKTHTMEGKLHDPEGMGIIPRIVQDIFNYIYSMDENLEFHIKVSYFEIYLDKIRDLLDVSKTNLSVHEDKNRVPYVKGCTERFVCSPDEVMDTIDEGKSNRHVAVTNMNEHSSRSHSIFLINVKQENTQTEQKLSGKLYLVDLAGSEKVSKTGAEGAVLDEAKNINKSLSALGNVISALAEGSTYVPYRDSKMTRILQDSLGGNCRTTIVICCSPSSYNESETKSTLLFGQRAKTIKNTVCVNVELTAVDKLAAALEHHHHHH"}, "B8": {"name": "hu_MKLP-1 (1-433H) motor domain (SEQ ID NO:20) (protein)", "chain": "MARAKTPRKPTVKKGSQTNLKDPVGVYCRVRPLGFPDQECCIEVINNTTVQLHTPEGYRLNRNGDYKETQYSFKQVFGTHTTQKELFDVVANPLVNDLIHGKNGLLFTYGVTGSGKTHTMTGSPGEGGLLPRCLDMIFNSIGSFQAKRYVFKSNDRNSMDIQCEVDALLERQKREAMPNPKTSSSKRQVDPEFADMITVQEFCKAEEVDEDSVYGVFVSYIEIYNNYIYDLLEEVPFDPIKPKPPQSKLLREDKNHNMYVAGCTEVEVKSTEEAFEVFWRGQKKRRIANTHLNRESSRSHSVFNIKLVQAPLDADGDNVLQEKEQITISQLSLVDLAGSERTNRTRAEGNRLREAGNINQSLMTLRTCMDVLRENQMYGTNKMVPYRDSKLTHLFKNYFDGEGKVRMIVCVNPKAEDYEENLQVMRFAEVTQEVDKLAAALEHHHHHH"}, "B9": {"name": "hu_KIF3A (1-350H) motor domain (SEQ ID NO:16) (protein)", "chain": "MPINKSEKPESCDNVKVVVRCRPLNEREKSMCYKQAVSVDEMRGTITVHKTDSSNEPPKTFTFDTVFGPESKQLDVYNLTARPIIDSVLEGYNGTIFAYGQTGTGKTFTMEGVRAIPELRGIIPNSFAHIFGHIAKAEGDTRFLVRVSYLEIYNEEVRDLLGKDQTQRLEVKERPDVGVYIKDLSAYVVNNADDMDRIMTLGHKNRSVGATNMNEHSSRSHAIFTITIECSEKGIDGNMHVRMGKLHLVDLAGSERQAKTGATGQRLKEATKINLSLSTLGNVISALVDGKSTHVPYRNSKLTRLLQDSLGGNSKTMMCANIGPADYNYDETISTLRYANRAKNIKNKARVDKLAAALEHHHHHH"}, "B10": {"name": "hu_CENP-E (1-340H) motor domain (SEQ ID NO:19) (protein)", "chain": "MAEEGAVAVCVRVRPLNSREESLGETAQVYWKTDNNVIYQVDGSKSFNFDRVFHGNETTKNVYEEIAAPIIDSAIQGYNGTIFAYGQTASGKTYTMMGSEDHLGVIPRAIHDIFQKIKKFPDREFLLRVSYMEIYNETITDLLCGTQKMKPLIIREDVNRNVYVADLTEEVVYTSEMALKWITKGEKSRHYGETKMNQRSSRSHTIFRMILESREKGEPSNCEGSVKVSHLNLVDLAGSERAAQTGAAGVRLKEGCNINRSLFILGQVIKKLSDGQVGGFINYRDSKLTRILQNSLGGNAKTRIICTITPVSFDETLTALQFASTAKYMKNTPYVNEVSTVDKLAAALEHHHHHH"}, "B11": {"name": "hu-KSP (1-367H) motor domain (SEQ ID NO:15) (protein)", "chain": "MASQPNSSAKKKEEKGKNIQVVVRCRPFNLAERKASAHSIVECDPVRKEVSVRTGGLADKSSRKTYTFDMVFGASTKQIDVYRSVVCPILDEVIMGYNCTIFAYGQTGTGKTFTMEGERSPNEEYTWEEDPLAGIIPRTLHQIFEKLTDNGTEFSVKVSLLEIYNEELFDLLNPSSDVSERLQMFDDPRNKRGVIIKGLEEITVHNKDEVYQILEKGAAKRTTAATLMNAYSSRSHSVFSVTIHMKETTIDGEELVKIGKLNLVDLAGSENIGRSGAVDKRAREAGNINQSLLTLGRVITALVERTPHVPYRESKLTRILQDSLGGRTRTSIIATISPASLNLEETLSTLEYAHRAKNILNKPEVNQHHHHHH"}}, "molecular_target": "taxol-stabilized microtubules"}
{"protein": "B1", "values": [{"measurement": "K1/2 (MT)", "result": 0.035, "unit": "µM"}]}
{"protein": "B2", "values": [{"measurement": "k(obs) (min-1) at MT 0 micromolar", "result": 0, "unit": "min⁻¹"}, {"measurement": "k(obs) (min-1) at MT 0.25 micromolar", "result": 0.73, "unit": "min⁻¹"}, {"measurement": "k(obs) (min-1) at MT 0.5 micromolar", "result": 1.49, "unit": "min⁻¹"}, {"measurement": "k(obs) (min-1) at MT 1 micromolar", "result": 4.12, "unit": "min⁻¹"}, {"measurement": "k(obs) (min-1) at MT 2.5 micromolar", "result": 9.29, "unit": "min⁻¹"}, {"measurement": "k(obs) (min-1) at MT 5 micromolar", "result": 18.3, "unit": "min⁻¹"}, {"measurement": "microtubule-dependent ATP hydrolysis activity", "result": "All of the KIF14 MD proteins showed microtubule-dependent ATP hydrolysis activity"}]}
{"protein": "B3", "values": [{"measurement": "K1/2 (MT)", "result": 10.6, "unit": "µM"}, {"measurement": "Km (Michaelis-Menten fit of microtubule utilization)", "result": "a Km of 2.6+/-1.1 (s.d.)"}, {"measurement": "k(obs) (min-1) at MT 0 micromolar", "result": 0, "unit": "min⁻¹"}, {"measurement": "k(obs) (min-1) at MT 0.25 micromolar", "result": 0.36, "unit": "min⁻¹"}, {"measurement": "k(obs) (min-1) at MT 0.5 micromolar", "result": 1.57, "unit": "min⁻¹"}, {"measurement": "k(obs) (min-1) at MT 1 micromolar", "result": 2.79, "unit": "min⁻¹"}, {"measurement": "k(obs) (min-1) at MT 2.5 micromolar", "result": 9.1, "unit": "min⁻¹"}, {"measurement": "k(obs) (min-1) at MT 5 micromolar", "result": 13.2, "unit": "min⁻¹"}, {"measurement": "kcat (Michaelis-Menten fit of microtubule utilization)", "result": "a kcat of 21.3+/-3.5 (s.d.)"}, {"measurement": "kcat/Km under optimized conditions (MES, pH 6.0, 40 mM KCl)", "result": "compared to 13.2 under optimized conditions (MES, pH 6.0,40 mM KCl)"}, {"measurement": "kcat/Km under unoptimized conditions (K-PIPES, pH 6.7, 90 mM KCl)", "result": "the kcat/Km for the V342-K720 motor domain (SEQ ID NO:4) under unoptimized conditions (K-PIPES, pH 6.7, 90 mM KCl) was 224"}, {"measurement": "microtubule-dependent ATP hydrolysis activity", "result": "All of the KIF14 MD proteins showed microtubule-dependent ATP hydrolysis activity"}]}
{"protein": "B4", "values": [{"measurement": "k(obs) (min-1) at MT 0 micromolar", "result": 0, "unit": "min⁻¹"}, {"measurement": "k(obs) (min-1) at MT 0.25 micromolar", "result": 0.39, "unit": "min⁻¹"}, {"measurement": "k(obs) (min-1) at MT 0.5 micromolar", "result": 1.07, "unit": "min⁻¹"}, {"measurement": "k(obs) (min-1) at MT 1 micromolar", "result": 1.87, "unit": "min⁻¹"}, {"measurement": "k(obs) (min-1) at MT 2.5 micromolar", "result": 5.79, "unit": "min⁻¹"}, {"measurement": "k(obs) (min-1) at MT 5 micromolar", "result": 10.2, "unit": "min⁻¹"}, {"measurement": "microtubule-dependent ATP hydrolysis activity", "result": "All of the KIF14 MD proteins showed microtubule-dependent ATP hydrolysis activity"}]}
{"protein": "B5", "values": [{"measurement": "k(obs) (min-1) at MT 0 micromolar", "result": 0, "unit": "min⁻¹"}, {"measurement": "k(obs) (min-1) at MT 0.25 micromolar", "result": 0.03, "unit": "min⁻¹"}, {"measurement": "k(obs) (min-1) at MT 0.5 micromolar", "result": 0.73, "unit": "min⁻¹"}, {"measurement": "k(obs) (min-1) at MT 1 micromolar", "result": 0.79, "unit": "min⁻¹"}, {"measurement": "k(obs) (min-1) at MT 2.5 micromolar", "result": 3.02, "unit": "min⁻¹"}, {"measurement": "k(obs) (min-1) at MT 5 micromolar", "result": 5.91, "unit": "min⁻¹"}, {"measurement": "microtubule-dependent ATP hydrolysis activity", "result": "All of the KIF14 MD proteins showed microtubule-dependent ATP hydrolysis activity"}]}
{"protein": "B6", "values": [{"measurement": "K1/2 (MT)", "result": 1.1, "unit": "µM"}]}
{"protein": "B7", "values": [{"measurement": "K1/2 (MT)", "result": 0.34, "unit": "µM"}]}
{"protein": "B8", "values": [{"measurement": "K1/2 (MT)", "result": 0.24, "unit": "µM"}]}
{"protein": "B9", "values": [{"measurement": "K1/2 (MT)", "result": 0.17, "unit": "µM"}]}
{"protein": "B10", "values": [{"measurement": "K1/2 (MT)", "result": 1.6, "unit": "µM"}]}
{"protein": "B11", "values": [{"measurement": "K1/2 (MT)", "result": 0.3, "unit": "µM"}]}
